In patent US9943596B2, “Combination therapy using dual inhibitor of c-MET and EGFR and IGF-1R inhibitor” (Samsung Electronics Co., Ltd., priority 2014, dated 2018):

B1: scFv of huAbF46: scFv of structure VH-linker-VL from the heavy and light chain variable regions of huAbF46 (protein)
scFv: EVQLVESGGGLVQPGGSLRLSCAASGFTFTDYYMSWVRQAPGKGLEWLGFIRNKANGYTTEYSASVKGRFTISRDNSKNTLYLQMNSLRAEDTAVYYCARDNWFAYWGQGTLVTVSSGLGGLGGGGSGGGGSGGSSGVGSDIQMTQSPSSLSASVGDRVTITCKSSQSLLASGNQNNYLAWHQQKPGKAPKMLIIWASTRVSGVPSRFSGSGSGTDFTLTISSLQPEDFATYYCQQSYSAPLTFGQGTKVEIKR
B2: ME22S: anti-c-Met/anti-EGFR bispecific antibody in which the modified anti-EGFR scFv is fused at the c-terminal of L3-1Y-IgG2 (antibody)
heavy: EVQLVESGGGLVQPGGSLRLSCAASGFTFTDYYMSWVRQAPGKGLEWLGFIRNKANGYTTEYSASVKGRFTISRDNSKNTLYLQMNSLRAEDTAVYYCARDNWFAYWGQGTLVTVSSASTKGPSVFPLAPCSRSTSESTAALGCLVKDYFPEPVTVSWNSGALTSGVHTFPAVLQSSGLYSLSSVVTVPSSNFGTQTYTCNVDHKPSNTKVDKTVERKCCVECPPCPAPPVAGPSVFLFPPKPKDTLMISRTPEVTCVVVDVSHEDPEVQFNWYVDGVEVHNAKTKPREEQFNSTFRVVSVLTVVHQDWLNGKEYKCKVSNKGLPAPIEKTISKTKGQPREPQVYTLPPSREEMTKNQVSLTCLVKGFYPSDIAVEWESNGQPENNYKTTPPMLDSDGSFFLYSKLTVDKSRWQQGNVFSCSVMHEALHNHYTQKSLSLSPGKGGGGSGGGGSEVQLLESGGGLVQPGGSLRLSCAASGFTFSNYDMSWVRQAPGKCLEWVSGISHSSGSKYYADSVKGRFTISRDNSKNTLYLQMNSLRAEDTAVYYCAKDATPRPLKPFDYWGQGTLVTVSSGGGGSGGGGSGGGGSQSVLTQPPSASGTPGQRVTISCTGSSSNIGNNDVSWYQQLPGTAPKLLIYDDNKRPSGVPDRFSGSKSGTSASLAISGLRSEDEADYYCGSWDASLNAYVFGCGTKLTVLG
light: DIQMTQSPSSLSASVGDRVTITCKSSQSLLASGNQNNYLAWYQQKPGKAPKMLIIWASTRVSGVPSRFSGSGSGTDFTLTISSLQPEDFATYYCQQSYSRPYTFGQGTKVEIKRTVAAPSVFIFPPSDEQLKSGTASVVCLLNNFYPREAKVQWKVDNALQSGNSQESVTEQDSKDSTYSLSSTLTLSKADYEKHKVYACEVTHQGLSSPVTKSFNRGEC

Legend:
c-Met = c-Met (Homo sapiens, UniProt P08581); assay: specificity of expressed scFv of huAbF46; type: binding; conditions: after expression
Sequence of c-Met (P08581 25-1390): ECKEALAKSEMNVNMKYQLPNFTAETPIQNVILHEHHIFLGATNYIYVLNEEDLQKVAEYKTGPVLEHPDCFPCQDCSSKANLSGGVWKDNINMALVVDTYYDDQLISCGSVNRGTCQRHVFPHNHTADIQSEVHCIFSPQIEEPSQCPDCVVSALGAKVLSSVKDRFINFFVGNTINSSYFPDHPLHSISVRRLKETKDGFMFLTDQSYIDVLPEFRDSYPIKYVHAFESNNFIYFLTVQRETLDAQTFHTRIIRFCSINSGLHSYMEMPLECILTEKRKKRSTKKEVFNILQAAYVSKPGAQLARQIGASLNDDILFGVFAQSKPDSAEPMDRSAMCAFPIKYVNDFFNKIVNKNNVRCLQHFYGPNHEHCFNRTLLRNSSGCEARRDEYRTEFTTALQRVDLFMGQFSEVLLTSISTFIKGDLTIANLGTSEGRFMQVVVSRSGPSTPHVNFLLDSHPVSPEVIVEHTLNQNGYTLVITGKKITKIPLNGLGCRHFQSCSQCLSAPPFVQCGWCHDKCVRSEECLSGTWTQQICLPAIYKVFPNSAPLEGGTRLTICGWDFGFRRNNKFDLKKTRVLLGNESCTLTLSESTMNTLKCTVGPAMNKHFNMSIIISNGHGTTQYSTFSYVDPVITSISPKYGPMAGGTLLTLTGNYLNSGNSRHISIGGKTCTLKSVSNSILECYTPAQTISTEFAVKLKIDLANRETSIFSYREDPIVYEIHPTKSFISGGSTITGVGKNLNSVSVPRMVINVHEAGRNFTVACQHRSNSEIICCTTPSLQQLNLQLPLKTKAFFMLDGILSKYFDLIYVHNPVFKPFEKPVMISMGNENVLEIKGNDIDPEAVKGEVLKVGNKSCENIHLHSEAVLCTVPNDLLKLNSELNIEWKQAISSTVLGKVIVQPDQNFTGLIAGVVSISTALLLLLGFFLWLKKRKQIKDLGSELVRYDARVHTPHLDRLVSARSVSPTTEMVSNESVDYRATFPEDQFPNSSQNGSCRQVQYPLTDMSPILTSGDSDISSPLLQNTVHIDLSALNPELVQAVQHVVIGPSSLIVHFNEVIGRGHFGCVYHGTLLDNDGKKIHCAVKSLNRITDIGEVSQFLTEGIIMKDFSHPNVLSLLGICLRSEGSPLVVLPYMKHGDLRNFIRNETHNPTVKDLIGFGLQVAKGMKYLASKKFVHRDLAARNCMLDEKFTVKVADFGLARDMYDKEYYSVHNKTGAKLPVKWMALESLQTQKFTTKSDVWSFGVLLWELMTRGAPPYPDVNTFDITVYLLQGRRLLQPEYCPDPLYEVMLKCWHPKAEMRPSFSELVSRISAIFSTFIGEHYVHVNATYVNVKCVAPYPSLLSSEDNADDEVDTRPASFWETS
Excerpt: For use in constructing an scFv of the huAbF46 antibody from the heavy and light chain variable regions of the huAbF46 antibody, a gene was designed to have the structure of “VH-linker-VL” for each of the heavy and the light chain variable region, with the linker including the amino acid sequence “[…]” (SEQ ID NO: 54). A polynucleotide sequence (SEQ ID NO: 55) encoding the designed scFv of huAbF46 was synthesized in Bioneer and an expression vector for the polynucleotide had the nucleotide sequence of SEQ ID NO: 56.

[1] = system: gastric cancer cell line SNU668; assay: cell proliferation assay (CellTiter Glo), SNU668; type: cell-based; conditions: ME22S 1/5 dilutions from 60 nM, alone or with linsitinib 10 μM, 72 hours, FIG. 2
Procedure: (§1) 72 hours after the treatment with the antibody and/or the inhibitor drug, the number of living cells was counted using a CellTiter Glo assay (Promega, G7573). This assay measures the amount of ATP which reflects metabolism of living cells, thereby counting the number of living cells.
(§2) 72 hours after the co-treatment, the cell number was measured by CellTiter Glo assay (Promega, G7573).

[2] = system: L3-1Y/IgG2 resistant MKN45re#1 and MKN45re#24 cell lines; assay: cell proliferation assay (CellTiter Glo), anti-c-Met antibody resistant MKN45; type: cell-based
Procedure: To obtain anti-c-Met antibody resistant MKN45 gastric cancer cells, MKN45 gastric cancer cells were administered with L3-1Y/IgG2 for at least 3 months by increasing the administration concentration. The amount of L3-1Y/IgG2 administered was increased from 1 μg/ml to 10 μg/ml, until resistance to L3-1Y/IgG2 is induced. The obtained L3-1Y/IgG2 resistant clones were named as MKN45re#1 and MKN45re#24, respectively.
72 hours after the co-treatment, the number of living cells was counted by CellTiter Glo assay (Promega, G7573). […] For comparison, the same experiment was preformed except that cells were treated with ME22S alone at the 1/5 diluted concentration starting from 10 nM.

[3] = system: gastric cancer cell line MKN45; assay: cell proliferation assay (CellTiter Glo), MKN45; type: cell-based; conditions: ME22S 1/5 dilutions from 10 nM and/or linsitinib 10 μM, 72 hours, FIGS. 4A, 4B
Procedure: as §1
(§3) 72 hours after the co-treatment, the number of living cells was counted by CellTiter Glo assay (Promega, G7573).

[4] = system: lung cancer cell line HCC827; assay: cell proliferation assay (CellTiter Glo), HCC827; type: cell-based; conditions: ME22S 1/5 dilutions from 150 nM and/or linsitinib 10 μM, 72 hours, FIGS. 3A, 3B
Procedure: as §1, §3

[5] = system: gastric cancer cell line SNU5; assay: cell proliferation assay (CellTiter Glo), SNU5; type: cell-based; conditions: ME22S 1/5 dilutions from 60 nM, alone or with linsitinib 10 μM, 72 hours, FIG. 2
Procedure: as §1, §2

| Molecule | specificity to c-Met (c-Met) | cell proliferation inhibition effect [1] | cancer cell proliferation inhibition effect ([2]; MKN45re#1 (linsitinib 10 μM) or MKN45re#24 (linsitinib 2.5 μM), ME22S 1/5 dilutions from 10 nM, 72 hours, FIG. 5) | resistance of the cell line to the antibody ([2]; anti-c-Met antibody (L3-1Y/IgG2) resistant MKN45 gastric cancer cell line) | cancer cell proliferation inhibition [3] | cancer cell proliferation inhibition effect [4] | cell proliferation inhibition effect [5] |
| --- | --- | --- | --- | --- | --- | --- | --- |
| B1 | exhibit specificity to c-Met |  |  |  |  |  |  |
| B2 |  | does not exhibit a cell proliferation inhibition effect | no cancer cell proliferation inhibition effect | resistant | can inhibit proliferation | not observed | has a cell proliferation inhibition effect |
